Assay results as given in US20190271710A1.

Key:
[1] = biological target: p217+ tau peptides (endogenous human tau protein or tau fragments phosphorylated at T217 and/or T212) (human) (UniProt P10636); assay: Simoa sandwich ELISA, pT3 capture beads, pooled AD CSF diluted 1:2
[2] = biological target: p217+ tau peptides (endogenous human tau protein or tau fragments phosphorylated at T217 and/or T212) (human) (UniProt P10636); assay: Simoa sandwich ELISA, pT3 capture beads, pooled AD CSF diluted 1:4
[3] = biological target: p217+ tau peptides (endogenous human tau protein or tau fragments phosphorylated at T217 and/or T212) (human) (UniProt P10636); assay: Simoa sandwich ELISA, pT3 capture beads, pooled AD CSF diluted 1:8
[4] = biological target: p217+ tau peptides (endogenous human tau protein or tau fragments phosphorylated at T217 and/or T212) (human) (UniProt P10636); assay: Simoa sandwich ELISA, pT3 capture beads, pooled AD CSF diluted 1:16
[5] = biological target: p217+ tau peptides (endogenous human tau protein or tau fragments phosphorylated at T217 and/or T212) (human) (UniProt P10636); assay: Simoa sandwich ELISA, pT3 capture beads, pooled AD CSF diluted 1:32
[6] = biological target: p217+ tau peptides (endogenous human tau protein or tau fragments phosphorylated at T217 and/or T212) (human) (UniProt P10636); assay: Simoa sandwich ELISA, pT3 capture beads, pooled AD CSF diluted 1:64

Chain of p217+ tau peptides (endogenous human tau protein or tau fragments phosphorylated at T217 and/or T212) (human) (P10636 other isoform, or with tags, fused parts or gaps limits assumed): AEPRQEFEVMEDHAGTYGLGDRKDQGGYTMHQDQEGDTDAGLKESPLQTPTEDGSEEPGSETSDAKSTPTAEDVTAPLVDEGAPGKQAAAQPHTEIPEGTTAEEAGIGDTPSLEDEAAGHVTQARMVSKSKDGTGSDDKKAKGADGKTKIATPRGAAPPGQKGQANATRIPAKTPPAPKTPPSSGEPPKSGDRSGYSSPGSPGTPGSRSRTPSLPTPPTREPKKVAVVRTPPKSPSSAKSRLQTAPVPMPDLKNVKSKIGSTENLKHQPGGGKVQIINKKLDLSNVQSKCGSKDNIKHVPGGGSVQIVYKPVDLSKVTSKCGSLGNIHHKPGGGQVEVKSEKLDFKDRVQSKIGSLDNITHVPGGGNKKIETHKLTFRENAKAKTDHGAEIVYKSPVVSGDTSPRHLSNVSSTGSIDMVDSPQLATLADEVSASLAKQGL

“Quanterix tau 2.0 assay detector (antibody)” showed a S/N @ 1:2 dilution [1] of 525 S/N, a S/N @ 1:4 dilution [2] of 262 S/N and a S/N @ 1:8 dilution [3] of 147 S/N. The S/N @ 1:16 dilution [4] was 75 S/N, the S/N @ 1:32 dilution [5] was 35 S/N and the S/N @ 1:64 dilution [6] was 19 S/N.
